Key:
[1] = test system: human gamma glutamyl hydrolase (hGH); experiment: Activity of baculovirus-expressed hGH mutants on methotrexate polyglutamates; assay type: biochemical; settings: mutants expressed in the baculovirus system
Text: This model for the active site of hGH has been tested by preparing the Cys110Ala, His220Ala, Glu222Ala, His171Ala, and His171Asn mutants of hGH. The mutants were expressed in the baculovirus system used for active hGH to facilitate the rapid expression and purification of the proteins. The mutant proteins were characterized for activity on methotrexate polyglutamates. […] The role of His171 in hGH has been examined by preparing the mutant His171Ala and the more conservative mutation His171Asn.

[2] = biological target: T1, human gamma glutamyl hydrolase (hGH) (Homo sapiens, UniProt Q92820, H195A); experiment: Activity of His 171 to Ala hGH mutant from E. coli expression system; assay type: biochemical
T1 construct: A cDNA encoding the 294 amino acid mature form of hGH protein with an N-terminal methionine preceding the first arginine residue; added N-terminal methionine (start codon) (N); made in house; host or cells: E. coli
T1 sequence (Q92820 25-318 H195A): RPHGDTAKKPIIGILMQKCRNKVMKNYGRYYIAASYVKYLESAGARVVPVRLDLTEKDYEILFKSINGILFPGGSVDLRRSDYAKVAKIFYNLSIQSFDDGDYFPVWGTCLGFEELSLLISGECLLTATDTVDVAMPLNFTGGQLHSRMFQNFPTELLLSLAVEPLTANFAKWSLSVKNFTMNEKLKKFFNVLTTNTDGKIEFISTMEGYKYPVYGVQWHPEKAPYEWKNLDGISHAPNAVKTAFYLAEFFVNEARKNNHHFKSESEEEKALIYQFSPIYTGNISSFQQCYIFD
Text: CPS contains two domains and catalyzes the synthesis of carbamoyl phosphate from bicarbonate, glutamine, and two molecules of MgATP. The smaller subunit is the site of glutamine hydrolysis to produce ammonia for deliver to the larger subunit. In agreement with the site directed mutagenesis study described above, the model predicts that Cys110 in hGH is analogous to Cys 269 in CPS, which functions as the active site nucleophile attacking the γ-carbonyl of glutamine to form a glutamyl thioester intermediate (Thoden et al. 1998). The model also predicts that His 220 and Glu 222 in hGH are the other two amino acids in the catalytic triad, corresponding to His 353 and Glu 355 in CPS. His 220 and Glu 222 are conserved in the human, rat and mouse glutamyl hydrolase sequences. In the proposed model for hGH, His 220 would activate Cys 110 and Glu 222 would stabilize the resulting positively charged imidizolium cation. […] His 312 in CPS points away from the catalytic triad and is involved in substrate binding not catalysis. When His 312 in CPS was conservatively mutated to Asn, the Km for the substrate was increased 200-fold (Miran et al. 1991). […] Further reinforcing evidence for this alignment model was obtained by running the Pfam HMM search program (Sonnhammer et al. 1998). The Pfam result has an E-value of 0.13 with the GATase model of class-I glutamine amidotransferases. […]

B1: His171Ala: hGH mutant with His 171 changed to Ala (protein)
chain: RPHGDTAKKPIIGILMQKCRNKVMKNYGRYYIAASYVKYLESAGARVVPVRLDLTEKDYEILFKSINGILFPGGSVDLRRSDYAKVAKIFYNLSIQSFDDGDYFPVWGTCLGFEELSLLISGECLLTATDTVDVAMPLNFTGGQLHSRMFQNFPTELLLSLAVEPLTANFAKWSLSVKNFTMNEKLKKFFNVLTTNTDGKIEFISTMEGYKYPVYGVQWHPEKAPYEWKNLDGISHAPNAVNPAFYLAEFFVNEARKKNHHFKSESEEEKALIYQFSPIYTGNISSFQQCYIFD
Activity on methotrexate tetraglutamate [1]: inactive
hGH activity (in words) [2]: lack of activity

From US6699683B1, “Active site of human gamma glutamy hydrolase” (Health Research Incorporated, priority 1996, dated 2004)
